From paper PMC12817928, “Demonstration of in vivo efficacy, cryo-EM-epitope identification, and breadth of two anti-alphavirus bispecific single domain antibodies” (Journal of Virology, 2025)

Columns and labels:
Assay in all cases: cryo-EM structure
Settings in all cases: both partners purified
[1] = biological target: T1, VEEV E1 envelope glycoprotein (strain TC83), in the VLP (Venezuelan equine encephalitis virus, …)
T1 construct: also called E1 subunit
T1 chain 1: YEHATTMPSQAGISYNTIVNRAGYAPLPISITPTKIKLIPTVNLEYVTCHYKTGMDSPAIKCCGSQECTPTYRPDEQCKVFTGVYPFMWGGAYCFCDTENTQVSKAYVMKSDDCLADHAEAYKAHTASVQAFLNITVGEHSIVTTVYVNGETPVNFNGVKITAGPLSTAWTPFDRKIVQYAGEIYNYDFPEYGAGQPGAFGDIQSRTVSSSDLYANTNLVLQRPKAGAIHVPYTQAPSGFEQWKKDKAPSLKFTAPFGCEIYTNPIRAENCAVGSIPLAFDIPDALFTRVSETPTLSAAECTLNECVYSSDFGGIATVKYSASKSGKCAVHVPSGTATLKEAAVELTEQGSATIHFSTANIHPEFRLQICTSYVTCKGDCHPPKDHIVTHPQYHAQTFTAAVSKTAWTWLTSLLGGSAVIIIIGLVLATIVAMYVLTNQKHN
T1 chain 2: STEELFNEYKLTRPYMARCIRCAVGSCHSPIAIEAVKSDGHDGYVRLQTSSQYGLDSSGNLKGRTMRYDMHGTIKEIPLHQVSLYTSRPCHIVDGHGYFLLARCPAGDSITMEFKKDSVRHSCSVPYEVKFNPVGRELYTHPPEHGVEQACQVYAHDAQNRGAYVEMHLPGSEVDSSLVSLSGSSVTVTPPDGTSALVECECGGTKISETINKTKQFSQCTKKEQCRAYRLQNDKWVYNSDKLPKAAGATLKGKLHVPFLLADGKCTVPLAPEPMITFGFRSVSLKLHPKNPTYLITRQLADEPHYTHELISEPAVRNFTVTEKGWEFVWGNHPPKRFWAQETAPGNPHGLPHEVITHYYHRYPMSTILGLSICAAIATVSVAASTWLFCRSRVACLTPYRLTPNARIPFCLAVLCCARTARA

[2] = biological target: T2, VEEV E2 envelope glycoprotein (strain TC83), in the VLP (Venezuelan equine encephalitis virus, …, strain)
T2 construct: also called E2 subunit
T2 chain 1: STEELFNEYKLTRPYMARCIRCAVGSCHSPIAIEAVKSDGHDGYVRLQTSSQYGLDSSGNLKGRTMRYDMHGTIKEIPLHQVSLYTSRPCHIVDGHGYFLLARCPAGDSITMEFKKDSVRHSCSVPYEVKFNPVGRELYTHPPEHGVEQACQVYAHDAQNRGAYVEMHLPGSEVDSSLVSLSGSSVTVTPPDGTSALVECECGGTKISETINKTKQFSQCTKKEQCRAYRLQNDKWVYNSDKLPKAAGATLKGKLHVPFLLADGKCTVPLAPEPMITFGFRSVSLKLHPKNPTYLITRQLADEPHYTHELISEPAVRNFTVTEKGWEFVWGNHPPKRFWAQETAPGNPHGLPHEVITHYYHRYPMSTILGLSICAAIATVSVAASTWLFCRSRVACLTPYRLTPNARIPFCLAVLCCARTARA
T2 chain 2: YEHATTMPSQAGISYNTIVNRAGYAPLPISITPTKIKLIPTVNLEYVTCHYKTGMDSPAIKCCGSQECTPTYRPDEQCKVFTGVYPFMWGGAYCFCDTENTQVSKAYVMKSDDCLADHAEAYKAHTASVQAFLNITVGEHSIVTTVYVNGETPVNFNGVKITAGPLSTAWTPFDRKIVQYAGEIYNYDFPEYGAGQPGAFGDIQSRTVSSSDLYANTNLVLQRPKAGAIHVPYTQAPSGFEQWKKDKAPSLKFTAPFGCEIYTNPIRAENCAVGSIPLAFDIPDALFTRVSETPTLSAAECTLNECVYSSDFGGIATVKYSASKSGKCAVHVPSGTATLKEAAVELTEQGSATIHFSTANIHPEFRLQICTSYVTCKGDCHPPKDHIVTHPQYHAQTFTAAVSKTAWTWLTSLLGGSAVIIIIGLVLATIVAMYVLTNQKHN

[3] = biological target: T3, VEEV virus-like particle (VLP), strain TC83 (subtype IAB) (Venezuelan equine encephalitis virus, …, strain)
T3 construct: also called VEEV VLP; VEEV IAB VLP
T3 chain 1: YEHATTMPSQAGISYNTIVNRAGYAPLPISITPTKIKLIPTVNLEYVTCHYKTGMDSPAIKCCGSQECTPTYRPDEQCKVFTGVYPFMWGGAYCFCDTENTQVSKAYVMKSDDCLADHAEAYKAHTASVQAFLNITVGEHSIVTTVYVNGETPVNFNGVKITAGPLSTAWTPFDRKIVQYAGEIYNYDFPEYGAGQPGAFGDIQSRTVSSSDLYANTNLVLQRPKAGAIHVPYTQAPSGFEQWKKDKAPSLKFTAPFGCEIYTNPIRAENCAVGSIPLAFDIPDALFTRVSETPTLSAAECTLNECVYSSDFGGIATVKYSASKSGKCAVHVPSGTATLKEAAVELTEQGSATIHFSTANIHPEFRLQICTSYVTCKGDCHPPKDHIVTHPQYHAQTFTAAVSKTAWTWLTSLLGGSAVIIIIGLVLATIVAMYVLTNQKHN
T3 chain 2: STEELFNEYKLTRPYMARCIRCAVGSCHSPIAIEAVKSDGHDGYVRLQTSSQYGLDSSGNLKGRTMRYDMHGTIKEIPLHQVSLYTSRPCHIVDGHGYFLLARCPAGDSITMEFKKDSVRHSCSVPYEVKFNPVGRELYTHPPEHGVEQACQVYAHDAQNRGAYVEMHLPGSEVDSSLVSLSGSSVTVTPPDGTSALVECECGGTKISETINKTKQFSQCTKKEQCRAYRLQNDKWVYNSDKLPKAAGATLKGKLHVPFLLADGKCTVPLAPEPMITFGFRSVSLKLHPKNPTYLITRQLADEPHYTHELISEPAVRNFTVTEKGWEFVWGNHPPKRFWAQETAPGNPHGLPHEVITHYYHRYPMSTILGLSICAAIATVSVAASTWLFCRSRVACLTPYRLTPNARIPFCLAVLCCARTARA

Measured: binding result

B1: sdAb V2B3 (VHH)
VHH: EVQLQASGGGLVQAGGSLRLSCAASGSIVSINVMAWYRQSPGKERELVAKSSGPFTLYADSVKGRFTISNDAAKNTVDLQMNSLKPEDTAVYYCNAEGLRYPSGTYGPSAVWGQGTQVTVSS
notes: source: ClearColi BL21(DE3), purified (Ni Sepharose, MEP HyperCel, SEC)
binds: [1] | [2] | [3]

B2: sdAb V2C3 (VHH)
VHH: DVQLQASGGGSVQAGGSLRLSCVASQNLFEYYTMGWYRQVPGSQRERVALINNGGSNVAGSVEGRFTISRDNAKNSIYLQMNNLKPEDSAVYYCRAFGPADYWGQGTQVTVSS
notes: as for B1
binds: [1] | [2] | [3]

B3: sdAb V3A8f (VHH)
VHH: DVQLQASGGGSVQAGGSLRLSCAASGHSFANYHVAWIRQTPGKEREFVGSASRRDDSTYYADFALGRFIISRDNDINTAYLQMNSLKPEDSAVYYCVAAVMAQTTQGWTTDYDLRGQGTQVTVSS
binds: [1] | [2] | [3]
